Experimental findings from patent US20080085863A1 (WISCONSIN ALUMNI RESEARCH FOUNDATION, published 2008) are described below.

For test [1], the target named is T1, Flag-tagged recombinant bone morphogenetic protein-1 (BMP-1) (UniProt P13497-2 121-730, limits assumed).
T1 sequence (looked up): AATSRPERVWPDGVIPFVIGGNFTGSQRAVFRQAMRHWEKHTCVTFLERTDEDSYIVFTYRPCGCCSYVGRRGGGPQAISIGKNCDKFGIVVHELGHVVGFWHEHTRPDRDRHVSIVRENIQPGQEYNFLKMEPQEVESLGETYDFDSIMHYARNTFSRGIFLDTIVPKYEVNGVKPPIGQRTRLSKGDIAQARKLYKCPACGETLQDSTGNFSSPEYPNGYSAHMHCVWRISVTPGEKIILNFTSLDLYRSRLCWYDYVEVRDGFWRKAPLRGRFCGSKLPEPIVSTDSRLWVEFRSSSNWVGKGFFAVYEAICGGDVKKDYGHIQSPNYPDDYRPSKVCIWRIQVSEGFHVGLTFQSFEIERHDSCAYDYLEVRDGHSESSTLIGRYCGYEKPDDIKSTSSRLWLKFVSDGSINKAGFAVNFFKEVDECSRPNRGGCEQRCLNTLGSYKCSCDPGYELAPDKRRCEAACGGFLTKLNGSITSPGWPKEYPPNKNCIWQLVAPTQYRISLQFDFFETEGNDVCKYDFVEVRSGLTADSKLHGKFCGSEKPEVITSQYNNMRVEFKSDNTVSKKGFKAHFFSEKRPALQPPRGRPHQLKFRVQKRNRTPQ
In words: cell-based or functional assay.

Test [2] addresses T1, Flag-tagged recombinant bone …. The test is described as follows: time course of covalent complex formation of 40 nM 35S-BMP-1 with increasing α2M, SDS-PAGE densitometry (method of Enghild et al.). The protocol:
40 nM ³⁵S-labeled BMP-1 was incubated with 20, 40, 80, 160, and 240 nM plasma α₂M, or recombinant wild type α₂M or with 5, 10, 20, 40, and 80 nM b-α₂M at 37° C. in 50 mM Tris-HCl, pH 7.5, 100 mM NaCl and 10 mM CaCl₂. Reactions were stopped at 10, 30, 60, 90 and 120 minutes (plasma α₂M and recombinant wild type α₂M), or at 2, 5, 10, 20 and 30 minutes (b-α₂M) by adding. SDS-PAGE sample buffer and boiling 5 minutes at 95° C. Protein samples were separated on 7.5% acrylamide SDS-PAGE gels, which were then treated with EN³HANCE (DuPont) and exposed to film. Percentages of BMP-1 incorporated into high molecular weight complexes were determined by densitometry and kinetic parameters were determined essentially via the method of Enghild J, et al, “Interaction of human rheumatoid synovial collagenase (matrix metalloproteinase 1) and stromelysin (matrix metalloproteinase 3) with human alpha 2-macroglobulin and chicken ovostatin. Binding kinetics and identification of matrix metalloproteinase cleavage sites,” J. Biol. Chem. 264:8779-8785 (1989).
To obtain a quantitative comparison of the rates of interaction of BMP-1 with the various wild type and mutant forms of α₂M, we employed the methodology of Enghild et al., supra, which involves quantification of covalent proteinase-α₂M complex formation, subsequent to incubation of radiolabeled proteinase with α₂M.

B1: human α2-macroglobulin from plasma (Sigma-Aldrich) (other)
chain: SVSGKPQYMVLVPSLLHTETTEKGCVLLSYLNETVTVSASLESVRGNRSLFTDLEAENDVLHCVAFAVPKSSSNEEVMFLTVQVKGPTQEFKKRTTVMVKNEDSLVFVQTDKSIYKPGQTVKFRVVSMDENFHPLNELIPLVYIQDPKGNRIAQWQSFQLEGGLKQFSFPLSSEPFQGSYKVVVQKKSGGRTEHPFTVEEFVLPKFEVQVTVPKIITILEEEMNVSVCGLYTYGKPVPGHVTVSICRKYSDASDCHGEDSQAFCEKFSGQLNSHGCFYQQVKTKVFQLKRKEYEMKLHTEAQIQEEGTVVELTGRQSSEITRTITKLSFVKVDSHFRQGIPFFGQVRLVDGKGVPIPNKVIFIRGNEANYYSNATTDEHGLVQFSINTTNVMGTSLTVRVNYKDRSPCYGYQWVSEEHEEAHHTAYLVFSPSKSFVHLEPMSHELPCGHTQTVQAHYILNGGTLLGLKKLSFYYLIMAKGGIVRTGTHGLLVKQEDMKGHFSISIPVKSDIAPVARLLIYAVLPTGDVIGDSAKYDVENCLANKVDLSFSPSQSLPASHAHLRVTAAPQSVCALRAVDQSVLLMKPDAELSASSVYNLLPEKDLTGFPGPLNDQDDEDCINRHNVYINGITYTPVSSTNEKDMYSFLEDMGLKAFTNSKIRKPKMCPQLQQYEMHGPEGLRVGFYESDVMGRGHARLVHVEEPHTETVRKYFPETWIWDLVVVNSAGVAEVGVTVPDTITEWKAGAFCLSEDAGLGISSTASLRAFQPFFVELTMPYSVIRGEAFTLKATVLNYLPKCIRVSVQLEASPAFLAVPVEKEQAPHCICANGRQTVSWAVTPKSLGNVNFTVSAEALESQELCGTEVPSVPEHGRKDTVIKPLLVEPEGLEKETTFNSLLCPSGGEVSEELSLKLPPNVVEESARASVSVLGDILGSAMQNTQNLLQMPYGCGEQNMVLFAPNIYVLDYLNETQQLTPEIKSKAIGYLNTGYQRQLNYKHYDGSYSTFGERYGRNQGNTWLTAFVLKTFAQARAYIFIDEAHITQALIWLSQRQKDNGCFRSSGSLLNNAIKGGVEDEVTLSAYITIALLEIPLTVTHPVVRNALFCLESAWKTAQEGDHGSHVYTKALLAYAFALAGNQDKRKEVLKSLNEEAVKKDNSVHWERPQKPKAPVGHFYEPQAPSAEVEMTSYVLLAYLTAQPAPTSEDLTSATNIVKWITKQQNAQGGFSSTQDTVVALHALSKYGAATFTRTGKAAQVTIQSSGTFSSKFQVDNNNRLLLQQVSLPELPGEYSMKVTGEGCVYLQTSLKYNILPEKEEFPFALGVQTLPQTCDEPKAHTSFQISLSVSYTGSRSASNMAIVDVKMVSGFIPLKPTVKMLERSNHVSRTEVSSNHVLIYLDKVSNQTLSLFFTVLQDVPVRDLKPAIVKVYDYYETDEFAIAEYNAPCSKDLGNA
notes: Bought plasma protein; also called plasma α2M; serum α2M
Turning to B1, the “inhibition of BMP-1 pCP activity (cleavage of 3H-radiolabeled type I procollagen), IC50” value in test [1] is 4.8 nM. In addition, in test [2], the Ki worked out at 25.2 nM.

B2: recombinant wild type α2-macroglobulin (FLAG-tagged) (other, not shown: small tags and cut ends)
chain: B1 chain
notes: Expressed in 293 T-REx cells with the native signal peptide replaced by the BM40 signal peptide; also called rα2M; recombinant α2M
As for B2, in test [1], the “pCP inhibitory activity, IC50” value was 133 nM. Also, the Ki in test [2] was 39.5 nM.
